# Measured values reported in US20220168434A1, “APPLICATION OF TRANSTHYRETIN IN ENTERING EYE AND PREPARING DROP” (YIZHOU (SHANGHAI) BIOLOGICAL MEDICINE CO, LTD., priority 2019, published 2022).
# Tests used:
# [1] = Protein content in vitreous body during two weeks of eye dropping (ELISA, anti-His tag antibody); type: in vivo, New Zealand big-eared rabbits (Oryctolagus cuniculus); conditions: New Zealand big-ear rabbits; protein not fused with TTR
# Protocol: (§1) The purified TTR protein (at a concentration of 4 μmol/L) prepared in Example 1 after removal of endotoxin and bacteria was subject to treating healthy SD rats (Rattus norregicus) (6 weeks old) and New Zealand big-eared rabbits (Oryctolagus cuniculus) (2 months old, about 2.5 kg) by means of eye dropping, the left eye was the sample eye dropped with the protein, and the right eye was the blank control eye dropped with saline. The protein was administered 1-3 times per day at a dosage of 0.4-0.8 nmol. Two weeks later, the eyeball was removed and separated to obtain the vitreous body sample. It was preliminarily verified by western-blot method (FIG. 7A) that TTR can enter the vitreous cavity from the ocular surface.
# (§2) The purified TTR-GFP protein (at a concentration of 4 μmol/L) prepared in Example 2 after removal of endotoxin and bacteria was subject to treating healthy SD rats (Rattus norregicus) (6 weeks old) and New Zealand big-eared rabbits (Oryctolagus cuniculus) (2 months old, about 2.5 kg) by means of eye dropping, the left eye was the sample eye dropped with the protein, and the right eye was the blank control eye dropped with saline. The protein was administered 1-3 times per day at a dosage of 0.4-0.8 nmol. […] The content of TTR-GFP in the vitreous body sample was determined by ELISA with the anti-His tag antibody as the primary antibody (Table 10 and 11). […]
# [2] = as above; type: in vivo, SD rats (Rattus norregicus); conditions: SD rats; protein not fused with TTR
# Protocol: as §1, §2
substance,measurement,setting,value
Lysozyme: Lysozyme protein (Genbank Accession No.: AAL69327.1) not fused with TTR,entering the vitreous body after eye dropping (in words),[1],did not enter
same,entering the vitreous body after eye dropping (in words),[2],did not enter
